Three molecules from article PMC9811555 (Current protocols, 2022) can be followed below.

One experiment addresses T1, VHH05-REPTOR-127D01 (VHH05 and 127D01 tags (human UBE2J1 and …, UniProt Q9Y385;P25025)).
T1 chain 1: QADQEAKELARQIS
T1 chain 2: SFEDFWKGED
As to the kind of experiment: immunostaining of cells or tissue.

The next experiment concerns the target T2, H2B-mCherry-VHH05 (VHH05 tag, identical to a stretch of …, UniProt Q9Y385).
T2 chain: QADQEAKELARQIS
Nature of the experiment: far-Western, overlay or dot blot.

A further experiment deals with T3, H2B-mCherry-127D01 (127D01 tag, identical to a stretch of …, UniProt P25025).
T3 chain: SFEDFWKGED
Nature of the experiment: far-Western, overlay or dot blot.

B1: NbVHH05-HA-His (VHH)
VHH: QVQLQESGGGLVQPGGSLRLSCAASGFVFENSAMAWYRQAPGKERELIAVIGTTFIKLAESVKGRFTISRDNAKSTVYLQMNNLKPEDTAVYYCSKSGAYWGQGTQVTVSS
Consider B1, for which the binding result in the experiment with VHH05-REPTOR-127D01 and in the experiment with H2B-mCherry-VHH05 was “binds” throughout.

B2: Nb127D01-HA-His (VHH)
VHH: EVQLVESGGGLVQAGESLRLSCAASGSTFDFKVMGWYRQPPGKQREGVAAIRLSGNMHYAESVKGRFAISKANAKNTVYLQMNSLRPEDTAVYYCKVNIRGQDYWGQGTQVTVSS
With B2, the binding result with H2B-mCherry-127D01 was “binds”.

B3: Nb127D01-ALFA-His (VHH)
VHH: B2 VHH
On to B3, for which the binding result with VHH05-REPTOR-127D01 is given as “binds”.
